Paper PMC5770610, “Structure and function of urea amidolyase” (Bioscience Reports, 2018)

Substrate: NC(N)=O
Experiment: glutamate dehydrogenase-coupled NADH assay of ammonium
Format: biochemical, Kluyveromyces lactis
Conditions: overall UA activity, 5 mM ATP, 12.5 mM bicarbonate, 11 mM MgCl2, 20 mM KCl
Description: glutamate dehydrogenase-coupled NADH assay of ammonium on KlUA

[1] = pH 8.0, mutation in AH N domain active site
[2] = pH 8.0, mutation in UC CT active site

B1: KlUA (Kluyveromyces lactis NRRL Y-1140; S177A) (protein)
chain: MESTLGWSVQDWLSFHSKSTPTKSLELLENLLKSQKPAPEDPAWISLIPVEDLHHQWNILQSKSNKEELPLYGVPIAVKDNIDYKGLPTTAACPSYLYQPTRDSYVVELLRDAGAVVIGKTNLDQFATGLVGTRSPYGKTPCVFNDKYVSGGSSAGSASVVGRGIVPLSLGTDTAGAGRVPAALNNLIGLKPTKGAFSCRGVVPACKSLDCVSVFALNLSDAEIAFKVMNKPDLLEDEYSREFPKNPISQYPKDLTIAIPKEVPWFGETENPKLYTKAVASLKNTGAKIVVVDFEPLLELARCLYEGAWVAERYCATRDFLATNPPESSLDETVVNIIKGAVKFDAADAFKFEYKRQGILQKVNLLLKDIDVLCVPTCPLNPKLEEVAQEPVLVNSRQGTWTNFVNLADLAALAVPSGFRSDGLPNGITLIGKKFSDYALLDLAKRFFSVAFPNNSRTYGKFVDRRITVEDELDGPSKDTLNGVKLAVVGAHLKGLPLHWQLQKCNATYLSSPKTSNNYKLYALPKVGPVLKPGLRRVNDGTGSQIQLEVYSVPYDRFGDFIAMVPEPLGIGSVELESGEWVKSFICEEFGYTQQGTVDITKFGGFKPYIEHIQVTEAQKKKPFETVLIANRGEIAVRIMKTLKRMGIKSVAVYSDPDKYSQHVTDADFSVALHGRTAAETYLDIDKIINAAKKTGAQAIIPGYGFLSENADFSDRCSQENIVFVGPSGDAIRKLGLKHSAREIAERAKVPLVPGSGLIKDAKEAKEVAKKLEYPVMVKSTAGGGGIGLQKVDSEDDIERVFETVQHQGKSYFGDAGVFMERFVNNARHVEIQMMGDGFGKAIAIGERDCSLQRRNQKVIEETPAPNLPEATRAKMRAASERLGSLLKYKCAGTVEFIYDEQRDEFYFLEVNARLQVEHPITEMVTGLDLVEWMLRIAANDSPDFDNTKIEVSGASIEARLYAENPVKDFRPSPGQLTSVSFPSWARVDTWVKKGTNVSAEYDPTLAKIIVHGKDRNDAIMKLNQALNETAVYGCITNIDYLRSIASSKMFKEAKVATKVLDSFDYKPCAFEVLAPGANTSVQDYPGRTGYWRIGVPPSGPMDSYSFRLANRVVGNNSKSPALEITLNGPKLLFHTETVIAVSGGTVSCTLNDAQIAQNEPIEVKRGDILSVGKVTVGCRAYLSIRGGIDVPEYLGSRSTFAMGNMGGYNGRILKLGDVLFLNQPELSVSSLPAPDFEPQAAPKSLLPTLSTNKDWKIGVTCGPHGSIDLFKEEYIEQFFNDKWKVHYNSNRFGVRLIGPKPKWARSDGGEAGLHPSNAHDYVYSLGAINFTGDEPVIITCDGPSLGGFVCQAVVAEAELWKVGQLTPGDTIQFVPLSYGVARQLKESQDKSIDNFEEGSLLELSDDKILPKYENPILAVLPKKSDLSPKVTYRQAGDRYILVEYGELEFDLNICYRINRLIHQVERHQTVGIVEMSQGVRSVLIEFDGSKINQKALLKCLIAYESEIQFDKNWNVKSKIFKLPMAFEDSKTLDCVTRYRETIRSEAPWLPNNVDFIADVNDIDRNDVKNMLYSAKFMVLGLGDVFLGSPCAVPLDPRHRYLGTKYNPSRTYTARGVVGIGGMYMCIYNAEGSPGGYQLVGRTITAWDKLVIGDHPIDHPWLLTPFDQVEFYPVTEEELEVIIEDNDNGKFKIDVEESIFDHKEYLAWINENIDSIVAFQEAQGGEKADEFARLIQVANAELKKSGDDKPQDVEEYPDDAELLYSEYTGRFWKPVAAVGDHVEAGDGVIIIEAMKTEMVVGATKSGKVYKILHKNGDMVEAGDLVAVIV
notes: full-length enzyme, AH + UC domains; recombinant in E. coli BL21(DE3) Star (pET28A, nickel column); homodimer, monomer 202 kDa
Work on B1 yielded a Km [1] of 0.203 ± 0.020 mM, a kcat [1] of 0.785 ± 0.0133 s⁻¹ and a kcat/Km [1] of 3870 ± 450 M⁻¹ s⁻¹.

B2: KlUA (Kluyveromyces lactis NRRL Y-1140; K1605A) (protein)
chain: MESTLGWSVQDWLSFHSKSTPTKSLELLENLLKSQKPAPEDPAWISLIPVEDLHHQWNILQSKSNKEELPLYGVPIAVKDNIDYKGLPTTAACPSYLYQPTRDSYVVELLRDAGAVVIGKTNLDQFATGLVGTRSPYGKTPCVFNDKYVSGGSSAGSASVVGRGIVPLSLGTDTAGSGRVPAALNNLIGLKPTKGAFSCRGVVPACKSLDCVSVFALNLSDAEIAFKVMNKPDLLEDEYSREFPKNPISQYPKDLTIAIPKEVPWFGETENPKLYTKAVASLKNTGAKIVVVDFEPLLELARCLYEGAWVAERYCATRDFLATNPPESSLDETVVNIIKGAVKFDAADAFKFEYKRQGILQKVNLLLKDIDVLCVPTCPLNPKLEEVAQEPVLVNSRQGTWTNFVNLADLAALAVPSGFRSDGLPNGITLIGKKFSDYALLDLAKRFFSVAFPNNSRTYGKFVDRRITVEDELDGPSKDTLNGVKLAVVGAHLKGLPLHWQLQKCNATYLSSPKTSNNYKLYALPKVGPVLKPGLRRVNDGTGSQIQLEVYSVPYDRFGDFIAMVPEPLGIGSVELESGEWVKSFICEEFGYTQQGTVDITKFGGFKPYIEHIQVTEAQKKKPFETVLIANRGEIAVRIMKTLKRMGIKSVAVYSDPDKYSQHVTDADFSVALHGRTAAETYLDIDKIINAAKKTGAQAIIPGYGFLSENADFSDRCSQENIVFVGPSGDAIRKLGLKHSAREIAERAKVPLVPGSGLIKDAKEAKEVAKKLEYPVMVKSTAGGGGIGLQKVDSEDDIERVFETVQHQGKSYFGDAGVFMERFVNNARHVEIQMMGDGFGKAIAIGERDCSLQRRNQKVIEETPAPNLPEATRAKMRAASERLGSLLKYKCAGTVEFIYDEQRDEFYFLEVNARLQVEHPITEMVTGLDLVEWMLRIAANDSPDFDNTKIEVSGASIEARLYAENPVKDFRPSPGQLTSVSFPSWARVDTWVKKGTNVSAEYDPTLAKIIVHGKDRNDAIMKLNQALNETAVYGCITNIDYLRSIASSKMFKEAKVATKVLDSFDYKPCAFEVLAPGANTSVQDYPGRTGYWRIGVPPSGPMDSYSFRLANRVVGNNSKSPALEITLNGPKLLFHTETVIAVSGGTVSCTLNDAQIAQNEPIEVKRGDILSVGKVTVGCRAYLSIRGGIDVPEYLGSRSTFAMGNMGGYNGRILKLGDVLFLNQPELSVSSLPAPDFEPQAAPKSLLPTLSTNKDWKIGVTCGPHGSIDLFKEEYIEQFFNDKWKVHYNSNRFGVRLIGPKPKWARSDGGEAGLHPSNAHDYVYSLGAINFTGDEPVIITCDGPSLGGFVCQAVVAEAELWKVGQLTPGDTIQFVPLSYGVARQLKESQDKSIDNFEEGSLLELSDDKILPKYENPILAVLPKKSDLSPKVTYRQAGDRYILVEYGELEFDLNICYRINRLIHQVERHQTVGIVEMSQGVRSVLIEFDGSKINQKALLKCLIAYESEIQFDKNWNVKSKIFKLPMAFEDSKTLDCVTRYRETIRSEAPWLPNNVDFIADVNDIDRNDVKNMLYSAKFMVLGLGDVFLGSPCAVPLDPRHRYLGTAYNPSRTYTARGVVGIGGMYMCIYNAEGSPGGYQLVGRTITAWDKLVIGDHPIDHPWLLTPFDQVEFYPVTEEELEVIIEDNDNGKFKIDVEESIFDHKEYLAWINENIDSIVAFQEAQGGEKADEFARLIQVANAELKKSGDDKPQDVEEYPDDAELLYSEYTGRFWKPVAAVGDHVEAGDGVIIIEAMKTEMVVGATKSGKVYKILHKNGDMVEAGDLVAVIV
notes: as for B1
B2 gave a Km [2] of 0.299 ± 0.039 mM, a kcat [2] of 1.33 ± 0.0333 s⁻¹ and a kcat/Km [2] of 4450 ± 683 M⁻¹ s⁻¹.
